Measured values: patent US20240245805A1 (Orna Therapeutics, Inc., priority 2020, published 2024)

tested on: HEK293 cells; format: cell-based, human; settings: circular RNA encoding Gluc with the listed IRES (UTR truncated to 675 nt) transfected into HEK293 cells; supernatant after 24 hours

Molecule	Expression (luminescence from secreted Gluc protein)
Ia Io (nucleic acid, source: /note="Description of Unknown: Ia Io sequence") DNA: GGTGTCCGGGTGTGTGGGATAGACCCAGATGTGCAGTGGATGCGAGCATTTGAGTCAGAGTAGGAGCAAGCCCAGGGGCAAAGGGACCACATTGTGTATCCCGAATGAAGGATCGAGATTTCTCTCCTCATTACCCGGTGTCTTGTCACTGTTGGGGGGGCCCAACAGTCTTAGTCCTATACTGCCTGATAGGGTCGCGGCTGGCCGGACTCAAGTGCTATAGTCAGTTGATTTTCACTC	1.35E+06
Hunnivirus A2 (nucleic acid, listed as Hunnivirus sp.) DNA: ACAGTTTTTGACAAGGACCCTCACCTGTCAATCGGGACCACCACTTTCAGTGACCCCGTGCGAAGTGTTGAGAGAAAGTGAGCTTTCTTACCCTTCATTTGTGAACCCTTCAGTCGAAGCCGCTTGGAATAAGATGGAAGGAAATGTTCATTCTAAATGGAGTGAAACATATACTTAATTTCCAGTGTTTAGTGGTCTTTCCACTAGACAACGGCACTGTCTTGCCGGAACTCTACACACCAACATTCCACGCTTGTGGGACTCAAATGTTGGATGACACAGTTGTAGCTGGAACTGAGTGTTTAGTGCACTCTGTGTAACAGTGAAAACAATGTGATCACTTCGGTGGGCTAGTAGCCTGTGGACTAACAACTGGTAACAGTTGCCTCAGGGGCCAAAAGCCACGGTGTTAACAGCACCCTACTAGTTTGATTGGAGCAATCCATGATGTTACAGAGTTAGTAACTGCCAAACAGATTGTACTGGTATCTTGGCATACCGTGCAACTTAGGATAGTGAAGGATGCCCTGGCGGTACCCATAGGTAACAAGTGACACTATGGATCTAAACAGGGGCTCACTCTACGTTGCTTTACAACTAGCTGTGAGTTAAAAAACGTCTAACTATCCACAACCTAGGGGACTAGGTTTTCCTTTTTATTTTTATACACAACTA	6.38E+06
Taura Syndrome Virus: "an IRES is an IRES sequence of Taura syndrome virus" (nucleic acid, Taura Syndrome Virus) DNA: CTTTAAAAGTCGTGCGTGGCTTCACCACGCACGATCAGTACTATCAGTTAACCACTCTTGAATATGCTCAATGACCCTATTCAACACTGGTGTCTCTTAGTACATTATTTTAGCACTTAACGTGCATGAGTTTTGCCCATTTCTTTCAAAAAAATGAGTATTCGAGGAGACGTCCCGCTCCCCGTCTTATTTCAACCGTAGACTCGACATCTATTGGTGGACATTTAATTCCAGTCGCCGTAAGTTGCTTCTGCCCCGCGCTATATTTTCTTATACTTATGGTTCTATAGGTCTGGTTTAAAACGTAAATAGACGGCCCACAAACTATAGAACGCGTACCCGGAACGCCAATCCCGGATAAGTCCCTGGATATATAGATGCACCGCAATATAAGCCTGCAGACTGTCTCATATACT	8.30E+05
GFTV (nucleic acid, lipid formulation; source: /note="Description of Unknown: GFTV sequence") ATGGGGAAGGGTATGACGTGCCCCTTCCTTCTTCGGAGAACTCGCTCTAGTGGTCTTTCCACTTCTGGAAAAGAGTGAGTGCACGTGATCAGGACCGTCGAAGACGACAAATACCTGGTGCTCTATCTCATAGACGTTTCACAGCTGTAGCGACCCCTCAGTAGCAGCGGAAGCCCCCTCCTGGTGACAGGAGCCTCTGCGGCCAAAAGCCACGTGGATAAGATCCACTGCTGAGGGCGGTGCGACCCTAGCACCCTGTGATGCATACTAGTTGTAGCGTGCCGGACTATTGGTCTGTCATAAGACACCTGATAGAGAGACCAAGAATGTCCTGGAGGTACCCCGCGTGCGGGATCTGACCAGGAGACCATTGCCCAATGCTTTACAACGGGTCTATGGTTTAAAAACTGTCGCAGTCTCTCCAAACCAAGTGGTCTTGGTTTTCAATTACTTTGAATATTTCACT	1.23E+06
VHEV (nucleic acid, source: /note="Description of Unknown: VHEV sequence") DNA: AATTCCTTCTTCCTTTCTCCTTGGACCTCGGTCCCCCGGTCTAAGCCGCTCGGAATATGACAGGGTTATTTTCACCTCTTCTCTCTTCTACTTCATAGTGTTCTATACTATGAAAGGGTATGTGTCGCCCCTTCCTTCTTGGAGAACGTGCGTGGCGGTCTTTCCGTCTCTCGAAAAACGTGCGTGCGACATGCAGAGTAACGCAAAGAAAGCAGTTCTTGGTCTAGCTCTGGTGCCCACAAGAAAACAGCTGTAGCGACCACACAAAGGCAGCGGAAACCCCCTCCTGGTAACAGGAGCCTCTGCGGCCAAAAGCCACGTGGATAAGATCCACCTTTGTGTGCGGTGCAACCCCAGCACCCTGGTTTCTTGGTGACACCTTAGTGAACCCTCGAATGGCAATCTCAAGCGCCTCTGTAGGAAAGCCAAGAATGTCCAGGAGGTACCCCTTCCTCATGGAGGGATCTGACCTGGAGACACATCACACGTGCTATACACTTGTGCTTGTGTTTAAAAATTGTCACAGCTTTCCCAAACCAAGTGGTCTTGGTTTTCCCTTAACTTCGAAAAGTCACTATGGCCTGCAAACATGGATACCCAGACGTGTGCCCT	1.74E+08
EV A114 (nucleic acid, listed as Enterovirus sp., lipid formulation) TGTGCGCCTGTTTTGAAACCCCCTCCCCCAACTCGAAACGTAGAAGTAATGTACACTACTGATCAGTAGCAGGCGTGGCGCACCAGCCATGTCTCGATCAAGCACTTCTGTTTCCCCGGACTGAGTATCAATAGACTGCTCACGCGGTTGAAGGTGAAAACGTCCGTTACCCGGCTAACTACTTCGAGAAACCTAGTAGCACCATAGAAACTGCAGAGTGTTTCGCTCAGCACTTCCCCCGTGTAGATCAGGTCGATGAGTCACTGCAATCCCCACGGGTGACCGTGGCAGTGGCTGCGTTGGCGGCCTGCCTATGGGGCAACCCATAGGACGCTCTAAGGTGGACATGGTGTGAAGAGTCTATTGAGCTAGTTAGTAGTCCTCCGGCCCCTGAATGCGGCTAATCCTAACTGTGGAGCGCATACTCCCAAACCAGGGAGCAGTGCGTCGTAACGGGCAACTCCGCAGCGGAACCGACTACTTTGGGTGTCCGTGTTTCCTTTTATTCCTATACTGGCTGCTTATGGTGACAATTGAGAGATTGTTACCATATAGCTATTGGATTGGCCATCCAGTGTGTAATAGAGCAATCATTTACCAATTTGTTGGATTTACTCCATTAACCCACACGTCTCTCAACACACTACATTTCATCTTACTACTGAACACTAGAAA	1.50E+08
Hunnivirus A1 (nucleic acid, listed as Hunnivirus sp.) DNA: TAACGTTTGGCAAGAACCCTCACCTGTCAATTGGGACCACCACTTTCAGTGACCCCATGCGAAGTAGTGAGAGAGAATAAGCTTTCTTACCCTTCATTTGTGAACCCTTCAGTCGAAGCCGCTTGGAATAAGATAGGAGGAAAAGTTCATTCTAAATGGAGTGAAACATGTACTTCAGAATTTCTAGCACGCGCTGGGCTTTCTTGCGTGTGACGGCACTGTCTTGCCGGAGCTCTCCACACTGACACCCCACGCTTGTGGACCTTGGTGGCAGATGACAACACTGCAGCTGGAATTGAGTGTCTGGTACACTCTGTGTAACAGTGAAAACAATGTGATCACTTCGGTGAGCTAGTAGCCTGTGGACCAACAACTGGTAACAGTTGCCTCAGGGGCCAAAAGCCACGGTGTTTACAGCACCCTACTGGTTTGATTGGAGCAATCCAAGATGTCACAGAGTTAGTAATTGCCAAGCAGTCCGTACTGGTATCTTGACATACCGTGCAGTTTTGGATAGTGAAGGATGCCCTGACGGTACCCATAGGTAACAAGTGACACTATGGATCTAAGCAGGGGCTCACTCTACGCTGCTTTACAGCTGGCTGTGAGTTAAAAAACGTCTAGCTATCCACAACCTAGGGGACTAGGTTTTCCTTTTATTTAGATTACAATTAT	1.61E+06
